Target: OsSEC3A_C (amino acids 521-888)-NLuc (rice (Oryza sativa))
Experiment: split reporter (BiFC, NanoBiT); split firefly luciferase complementation, NLuc and CLuc fusions under the 35S promoter co-expressed in N. benthamiana leaves, read 3 d after infiltration

CLuc-OsSNAP32 (natural protein)
fold LUC activity over the negative vector controls: 15 fold

From publication PMC6018903
